Target: recombinant ScCD8α extracellular IgSF V domain (Ser20-Met163) (small-spotted catshark (Scyliorhinus canicula))
Experiment: native gel or EMSA; PAGE under non-reducing conditions of purified recombinant ScCD8α; Tris-Gly buffer pH 4.4, ice-water bath, 120 V, 2 h; band of approx. 32 kDa against approx. 16 kDa in reducing SDS-PAGE

Substance: recombinant ScCD8α extracellular IgSF V domain (Ser20-Met163) (domain or fragment)
- stoichiometry N: 2
